The text below walks through data of patent US5690954A, “Enhanced uptake drug delivery system having microspheres containing an active drug and a bioavailability improving material” (priority 1987, dated 1997).

Series [1] in a line: Comparative studies: nasal insulin with various materials with and without starch microspheres. It counts as in vivo. To be noted: sheep; for decrease in plasma glucose and increase in absorption versus starch microspheres alone: nasal powder. The method, then: A series of studies were carried out to determine the effect on the administration of insulin of various enhancers with and without microsphere particles. All of the studies were carried out in sheep and the insulin was administered intranasally either in solution or powder formulation. The preparation of the various insulin formulations and the method of administration and result taking were all as described earlier.

A short description of series [2]: Bioavailability enhancement by microspheres plus bioavailability increasing material (general statement). Particulars: microspheres with lysophosphatidylcholine. The text has this: The material selected for these studies has been lysophosphatidylcholine (described above).
The conditions of series [3]: intranasal with Laureth 9; cited from earlier work.
Series [4] can be described thus: Insulin nasal in sheep, plasma glucose and plasma insulin.
For series [5] the following is noted: dogs, powder with cellulosic material and Carbopol 934; cited from earlier work.
For series [6] the following is noted: rats, nasal polyacrylic acid gel, versus normal formulation; cited from earlier work.
For series [7] the following is noted: without enhancer; cited from earlier work.
The conditions of series [8]: nasal, sodium deoxycholate; cited from earlier work.
Where [9] appears, read: intranasal simple solution, 2 IU/kg.
Setting [10] is: intranasal solution with 0.2% LPC.
[11] abbreviates: intranasal starch microspheres and LPC.
The mark [12] stands for this setting: intranasal starch microspheres and LPC, 2 IU/kg.

In the case of “insulin: Zn-crystallized highly purified semisynthetic human insulin (sheep studies)”, in series [1] (nasal), the “shape of absorption profile” value is “sharp peak”. Further, the “plasma glucose level versus insulin in GDC solution” value in series [1] (nasal 2 IU/kg, GDC 0.08 mg/kg and starch microspheres 2.5 mg/kg) is “decreased considerably more”. For the same substance, the “absorption (plasma insulin levels)” value in series [1] (nasal 2 IU/kg, GDC and starch microspheres) is on record as “enhanced absorption”. For the same substance, the “decrease in plasma glucose and increase in absorption versus starch microspheres alone” value in series [1] (starch microspheres with N-acetyl cysteine) is “considerably increased”. In series [1] (starch microspheres with aprotinin), the “decrease in plasma glucose and increase in absorption versus starch microspheres alone” value is on record as “considerably increased”. For the same substance, the “effect on plasma glucose levels versus LPC-M alone in solution” value in series [1] (nasal, LPC-M and starch microspheres) was “considerably increased effect”. Also, the “enhancement concept, outcome” value in series [2] is “successful”. Also, in series [3], the “appearance of peak level” value is “rapidly” and the dose response entry is on record as “clear dose response relationship”. For the same substance, the “shape of plasma glucose profile versus intravenous insulin” value in series [4] (intranasal insulin-microsphere-enhancer system) was “very similar to the one obtained for the intravenous insulin”. For the same substance, in series [4] (setting [9]), the “amount of insulin absorbed” value is “very low” and the “effect on plasma glucose level” value is “does not have a significant effect”. Besides, in series [4] (setting [10]), the “amount of insulin appearing in the circulation” value is listed as “increases the amount of insulin appearing in the circulation” and the plasma glucose level result is given as “somewhat lower”. Also, in series [4] (setting [11]), the “decline of insulin level after peak” value is on record as “decreases rapidly as for intravenous insulin”, the “relative bioavailability versus subcutaneous injection” value is listed as “about 25%” and the “time of peak insulin level” value fell in the range of 15 to 20 min. Also, in series [4] (setting [12]), the “increase in AUC of plasma insulin versus simple nasal solution” value worked out at 693% and the “increase in peak insulin level versus simple nasal solution” value is 1040%. Also, in series [5], the “absorption after nasal application” value is “increase the absorption”. The plasma glucose levels result in series [6] is given as “significant decrease”. Besides, the “absorption efficiency across the nasal membrane” value in series [7] is given as “about 1.2 % of the administered dose”. Further, in series [8], the “effect of increasing amounts of bile salt on absorption” value was “striking effect”.
